Measurements reported in patent US20060067886A1, “Gastrin receptor-avid peptide conjugates” (priority 1997, published 2006).
Like-named read-outs stand apart in the source and are kept apart here.

Columns and labels:
[1] = target: T1, GRP receptors on Swiss 3T3 cells (Mus musculus, UniProt P21729); assay: Competitive cell binding vs 125I-Tyr4-BBN, Swiss 3T3 cells
T1 construct: endogenous in cells; host or cells: Swiss 3T3 mouse fibroblasts (whole cells)
Description: The binding affinities of the synthetic BBN derivatives were assessed for GRP receptors on Swiss 3T3 cells and, in some cases, on a variety of human cancer cell lines, that express GRP receptors. […] The cell binding assay methods used to measure the IC50's is standard and used techniques previously reported [Jensen et al., 1993; Cai et al., 1994; Cai et al., 1992]. The methods used for determining IC50's for all GRP receptor binding compounds on all cell lines was similar. The specific method used to measure IC50's on Swiss 3T3 cells is briefly described as follows:
(§1) Swiss 3T3 mouse fibroblasts are grown to confluence in 48 well microtiter plates. […] The growth media was removed, the cells were washed twice with incubation media, and incubation media was returned to the cells. ^125I-Tyr4-BBN (0.01 uCi) was added to each well in the presence of increasing concentrations of the appropriate competitive peptide. Typical concentrations of displacing peptide ranged from 10-12 to 10-5 moles of displacing ligand per well. The cells were incubated at 37° C. for forty minutes in a 95% […]/5% CO2 humidified environment. At forty minutes post initiation of the incubation, the medium was discarded, and the cells were washed twice with cold incubation media. The cells were harvested from the wells following incubation in a trypsin/EDTA solution for five minutes at 37° C. Subsequently, the radioactivity, per well, was determined and the maximum % total uptake of the radiolabeled peptide was determined and normalized to 100%.
The binding affinities of the synthetic BBN derivatives were assessed for GRP receptors on Swiss 3T3 cells, PC-3 cells and CF PAC-1 cells. The IC50's of each of derivative were determined relative to (i.e., in competition with) ^125I-Tyr^4-BBN. The cell binding assay methods used to measure the IC50's is standard and was used by techniques previously reported [Jensen et al., 1993; Cai et al., 1992; Cai et al., 1994]. The methods used for determining IC50's with all BBN analogue binding to GRP receptors present on all three cell lines were similar. The specific method used to measure IC50's on Swiss 3T3 cells, is briefly described as follows:
as §1, with “microliter” for “microtiter”, “^125I-Tyr^4-BBN” for “^125I-Tyr4-BBN”, “μCi)” for “uCi)”, “10^−12” for “10-12”, “10^−5” for “10-5”, “100%. A similar procedure was used in performing cell binding assays with both the PC-3 and CFa-PAC-1 human cancer cell lines.” for “100%.”

[2] = target: T2, GRP receptors on CF PAC-1 cells (Homo sapiens, UniProt P30550); assay: Competitive cell binding vs 125I-Tyr4-BBN, CF PAC-1 cells
T2 construct: two different human cancer cell lines that express GRP receptors (i.e., CF-PAC1 and PC-3 cell lines); endogenous in cells; host or cells: CFPAC-1 human pancreatic cancer cells (whole cells)
T2 sequence (P30550 whole entry): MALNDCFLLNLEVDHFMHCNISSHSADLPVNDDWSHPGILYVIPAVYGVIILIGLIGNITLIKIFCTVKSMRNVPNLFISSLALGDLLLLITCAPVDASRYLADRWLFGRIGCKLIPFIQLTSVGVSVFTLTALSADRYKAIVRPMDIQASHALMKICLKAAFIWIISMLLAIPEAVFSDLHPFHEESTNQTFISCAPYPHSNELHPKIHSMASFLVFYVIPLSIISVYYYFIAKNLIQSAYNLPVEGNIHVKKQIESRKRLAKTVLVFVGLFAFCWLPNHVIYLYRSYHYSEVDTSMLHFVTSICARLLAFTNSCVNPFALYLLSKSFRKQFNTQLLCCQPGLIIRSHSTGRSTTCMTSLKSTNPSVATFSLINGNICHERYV

[3] = target: T3, GRP receptors on PC-3 cells (Homo sapiens, UniProt P30550); assay: Competitive cell binding vs 125I-Tyr4-BBN, PC-3 cells
T3 construct: two different human cancer cell lines that express GRP receptors (i.e., CF-PAC1 and PC-3 cell lines); host or cells: PC-3 human prostate cancer cells (whole cells)
T3 sequence (P30550 whole entry): as above

[4] = test system: PC-3 human tumor xenografts; assay: in vivo
Description: In vivo pharmacokinetic studies in human tumor bearing SCID mice. […] The xenograft models were produced by bilateral flank inoculation of 5×10^6 cells (PC-3 or MDA-MB-231 cells) per site. Four to six weeks post inoculation, palpable tumors were observed. At this point, the mice were injected with 4 μCi of the complex in […] of isotonic saline via the tail vein. The mice were euthanized and tissues and organs were excised from the animals at selected times post-injection (p.i.), including 15 minutes, 30 minutes, 1 hour, 4 hours, 24 hours, 48 hours, and 72 hours p.i. Subsequently, the tissues and organs were weighed and counted in a NaI well counter and the percent injected dose (% ID) and % ID/g of each organ or tissue calculated.
The mice were injected with 4 μCi of the complex in 100 μL of isotonic saline via the tail vein. The mice were euthanized by cervical dislocation. Tissues and organs were excised from the animals following at 1 hour, 4 hour, and 24 hours post-injection (p.i.). Subsequently, the tissues and organs were weighed and counted in a NaI well counter and the percent injected dose (% ID) and % ID/g of each organ or tissue calculated.

[5] = test system: MDA-MB-231 human tumor xenografts;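 also: SCID mice bearing bilateral flank PC-3 or MDA-MB-231 xenografts, tail-vein dosing, organs sampled from 15 min to 72 h post-injection, radioactivity measured with NaI well counter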
[6] = Biodistribution of radiometal-DOTA-BBN conjugates in CF1 normal mice; conditions: 1 hour post-injection
PC-3 cells = assay: Internalization and efflux of In-DOTA-8-Aoc-BBN in PC-3 cells; assay type: cell-based, human
Description: Internalization and efflux studies. […] The percent of cell-associated activity as a function of time (in the incubating medium at 37° C.) was determined. The percentage radioactivity trapped in the cells was determined after removing activity bound to the surface of the cells by washing with a pH-2.5 (0.2M acetic acid and 0.5M NaCl) buffer 1, 2, 3 and 4 hours afterwards.

Swiss 3T3 cells = assay: Internalization and efflux, Swiss 3T3 cells; assay type: cell-based, mouse; conditions: sixty minutes / one hour post-washing
Description: After establishment of equilibrium after a forty minute incubation, the media surrounding the cells was removed and the cells were washed with fresh media containing no radioactivity. […] The cells were then incubated in a 0.2M acetic acid solution (pH 2.5) which caused the surface proteins (incl., GRP receptors) to denature and release all surface bound radioactive materials. After removing this buffer and washing, the cells were counted again.
To determine intracellular retention, a similar method was employed. […] FIG. 12 is a graph of results of efflux experiments using Swiss 3T3 cells with ^125I-Lys^3-BBN.

T1 sequence (P21729 whole entry): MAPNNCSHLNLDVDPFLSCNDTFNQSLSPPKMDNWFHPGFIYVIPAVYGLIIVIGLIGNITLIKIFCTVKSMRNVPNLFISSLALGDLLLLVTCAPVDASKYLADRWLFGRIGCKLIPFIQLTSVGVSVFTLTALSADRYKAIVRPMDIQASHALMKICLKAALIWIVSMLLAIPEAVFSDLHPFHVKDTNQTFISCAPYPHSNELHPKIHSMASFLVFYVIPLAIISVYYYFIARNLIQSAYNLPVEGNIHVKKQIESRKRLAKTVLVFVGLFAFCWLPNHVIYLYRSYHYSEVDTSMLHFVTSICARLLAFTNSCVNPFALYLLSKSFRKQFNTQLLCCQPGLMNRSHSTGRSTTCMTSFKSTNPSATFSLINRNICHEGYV

`CSCC[C@H](NC(=O)[C@H](CC(C)C)NC(=O)[C@H](Cc1c[nH]cn1)NC(=O)CNC(=O)[C@@H](NC(=O)[C@H](C)NC(=O)[C@H](Cc1c[nH]c2ccccc12)NC(=O)[C@H](CCC(N)=O)NC(=O)CCCCNC(=O)COC1CSCCCSCCCSCCCSC1)C(C)C)C(N)=O` [RhCl2BBN-37] showed an IC50 [1] of 4.76 ± 0.79 nM, an IC50 [2] of about 7 nM and an IC50 ([3]; PC-3 cells, read-out: IC50) of about 7 nM. The IC50 ([3]; Prostate CA, PC-3, read-out: IC50 (Mean Value)) was 7 nM.
For `CSCC[C@H](NC(=O)[C@H](CC(C)C)NC(=O)[C@H](Cc1cnc[nH]1)NC(=O)CNC(=O)[C@@H](NC(=O)[C@H](C)NC(=O)[C@H](Cc1c[nH]c2ccccc12)NC(=O)[C@H](CCC(N)=O)NC(=O)CCCCCCCNC(=O)CN1CCN(CC(=O)O)CCN(CC(=O)O)CCN(CC(=O)O)CC1)C(C)C)C(N)=O` [111In-DOTA-8-Aoc-BBN[7-14]NH2] [metal not drawn], the “Avg % ID, Blood” value ([4]; 1 hr) was 0.92±0.58 % ID, the “Avg % ID, Carcass” value ([4]; 1 hr) was 13.55 ± 6.05 % ID and the “Avg % ID, Liver” value ([4]; 1 hr) was 1.41 ± 0.32 % ID. The “Avg % ID, Lung” value ([4]; 1 hr) was 0.09 ± 0.07 % ID, the “Avg % ID, Pancreas” value ([4]; 1 hr) was 3.49 ± 2.15 % ID and the “Avg % ID, Spleen” value ([4]; 1 hr) was 0.09 ± 0.07 % ID. For the same compound, the “Avg % ID/gm, Liver” value ([4]; 1 hr) was 1.34 ± 0.25 % ID/gm, the “Avg % ID/gm, Lung” value ([4]; 1 hr) was 0.50 ± 0.39 % ID/gm and the “Avg % ID/gm, Pancreas” value ([4]; 1 hr) was 18.80 ± 10.97 % ID/gm. For the same compound, the “Avg % ID/gm, Spleen” value ([4]; 1 hr) was 1.39 ± 1.17 % ID/gm, the “Avg % ID, Carcass” value ([4]; 4 hrs) was 2.92 ± 0.64 % ID and the “Avg % ID, L. Intestine” value ([4]; 4 hrs) was 6.04 ± 2.05 % ID. For the same compound, the “Avg % ID, Liver” value ([4]; 4 hrs) was 1.57 ± 0.72 % ID, the “Avg % ID, Muscle” value ([4]; 4 hrs) was 0.0 ± 0.00 % ID and the “Avg % ID, Tumor” value ([4]; 4 hrs) was 0.18 ± 0.17 % ID. The “Avg % ID/gm, Blood” value ([4]; 4 hrs) was 0.27 ± 0.02 % ID/gm, the “Avg % ID/gm, Liver” value ([4]; 4 hrs) was 1.44 ± 0.57 % ID/gm and the “Avg % ID/gm, Spleen” value ([4]; 4 hrs) was 1.59 ± 0.27 % ID/gm. For the same compound, the “Avg % ID/gm, Stomach” value ([4]; 4 hrs) was 0.96 ± 0.57 % ID/gm, the “excretion through the renal pathway” value ([4]; 24 hours p.i.) was 87 % ID and the “Avg % ID, Carcass” value ([4]; 24 hrs) was 1.69 ± 0.56 % ID. The “Avg % ID, Heart” value ([4]; 24 hrs) was 0.00 ± 0.01 % ID, the “Avg % ID, Pancreas” value ([4]; 24 hrs) was 1.19 ± 0.49 % ID and the “Avg % ID, Stomach” value ([4]; 24 hrs) was 0.09 ± 0.02 % ID. For the same compound, the “Avg % ID/gm, Blood” value ([4]; 24 hrs) was 0.10 ± 0.03 % ID/gm, the “Avg % ID/gm, Kidney” value ([4]; 24 hrs) was 1.18 ± 0.14 % ID/gm and the “Avg % ID/gm, Lung” value ([4]; 24 hrs) was 0.09 ± 0.07 % ID/gm. The “Avg % ID/gm, Pancreas” value ([4]; 24 hrs) was 6.78 ± 1.15 % ID/gm, the “Avg % ID/gm, S. Intestine” value ([4]; 24 hrs) was 0.89 ± 0.16 % ID/gm and the “Avg % ID/gm, Spleen” value ([4]; 24 hrs) was 0.46 ± 0.20 % ID/gm. The “Avg % ID/gm, Stomach” value ([4]; 24 hrs) was 0.30 ± 0.05 % ID/gm, the “Avg % ID, Carcass” value ([4]; 48 hrs) was 0.57 ± 0.02 % ID and the “Avg % ID, Muscle” value ([4]; 48 hrs) was 0.00 ± 0.00 % ID. The “Avg % ID/gm, Spleen” value ([4]; 48 hrs) was 0.22 ± 0.22 % ID/gm, the “Avg % ID, Heart” value ([4]; 72 hrs) was 0.00 ± 0.00 % ID and the “Avg % ID, Lung” value ([4]; 72 hrs) was 0.00 ± 0.00 % ID. The “Avg % ID, Muscle” value ([4]; 72 hrs) was 0.00 ± 0.00 % ID, the “Avg % ID/gm, Blood” value ([4]; 72 hrs) was 0.01 ± 0.02 % ID/gm and the “Avg % ID/gm, Heart” value ([4]; 72 hrs) was 0.01 ± 0.01 % ID/gm. The “Avg % ID/gm, Kidney” value ([4]; 72 hrs) was 0.20 ± 0.02 % ID/gm, the “Avg % ID/gm, Muscle” value ([4]; 72 hrs) was 0.01 ± 0.02 % ID/gm and the “initial tumor uptake retained” value ([5]; 4 hours) was 46%. The “initial tumor uptake retained” value ([5]; 24 hours) was 28%, the “Avg % ID, Blood” value [6] was 0.66 ± 0.13 % ID and the “Avg % ID, Carcass” value [6] was 5.01 ± 0.47 % ID. The “Avg % ID, Liver” value [6] was 1.02 ± 0.08 % ID, the “Avg % ID, Lung” value [6] was 0.07 ± 0.02 % ID and the “Avg % ID/gm, Heart” value [6] was 0.05 ± 0.02 % ID/gm. For the same compound, the “Avg % ID/gm, Kidney” value [6] was 2.37 ± 0.31 % ID/gm, the “Avg % ID/gm, L. Intestine” value [6] was 2.66 ± 1.07 % ID/gm and the “Avg % ID/gm, Lung” value [6] was 0.31 ± 0.07 % ID/gm. The “Avg % ID/gm, S. Intestine” value [6] was 4.43 ± 0.90 % ID/gm.
For `CSCC[C@H](NC(=O)[C@H](CC(C)C)NC(=O)[C@H](Cc1c[nH]cn1)NC(=O)CNC(=O)[C@@H](NC(=O)[C@H](C)NC(=O)[C@H](Cc1c[nH]c2ccccc12)NC(=O)[C@H](CCC(N)=O)NC(=O)CCCCCCCNC(=O)CN1CCN(CC(=O)O)CCN(CC(=O)O)CCN(CC(=O)O)CC1)C(C)C)C(N)=O` [In-DOTA-8-Aoc-BBN[7-14]NH2], the internalization (PC-3 cells) was “rapid receptor mediated endocytosis” and the retention within cells (PC-3 cells) was “remained retained within the cells for a prolonged time period”.
`CSCC[C@H](NC(=O)[C@H](CC(C)C)NC(=O)[C@H](Cc1c[nH]cn1)NC(=O)CNC(=O)[C@@H](NC(=O)[C@H](C)NC(=O)[C@H](Cc1c[nH]c2ccccc12)NC(=O)[C@H](CCC(N)=O)NC(=O)CNC(=O)COC1CSCCCSCCCSCCCSC1)C(C)C)C(N)=O` [BBN-99] showed an IC50 [1] of 1 to 6 nM, an IC50 [2] of 1 to 6 nM and an IC50 ([3]; PC-3 cells, read-out: IC50) of 1 to 6 nM.
`CSCC[C@H](NC(=O)[C@H](CC(C)C)NC(=O)[C@H](Cc1c[nH]cn1)NC(=O)CNC(=O)[C@@H](NC(=O)[C@H](C)NC(=O)[C@H](Cc1c[nH]c2ccccc12)NC(=O)[C@H](CCC(N)=O)NC(=O)CNC(=O)CNC(=O)COC1CSCCCSCCCSCCCSC1)C(C)C)C(N)=O` [BBN-98] showed an IC50 [1] of 1 to 6 nM, an IC50 [2] of 1 to 6 nM and an IC50 ([3]; PC-3 cells, read-out: IC50) of 1 to 6 nM.
For `CC(C)C[C@H](NC(=O)[C@H](Cc1c[nH]cn1)NC(=O)CNC(=O)[C@@H](NC(=O)[C@H](C)NC(=O)[C@H](Cc1c[nH]c2ccccc12)NC(=O)[C@H](CCC(N)=O)NC(=O)CCCCNC(=O)COC1CSCCCSCCCSCCCSC1)C(C)C)C(N)=O` [105Rh-BBN-61], the IC50 [1] was 4.1 nM and the “activity remaining associated with the cells” value (Swiss 3T3 cells) was “less than 10%”.
